Data from US20140011734A1 (Sanofi, published 2014).
Starred links: 1 amine or outer side, 2 acyl side, 3 side chain; linkers in the order of their positions; H or OH if unused. Non-standard residues stand in square brackets, D forms with d. Amp = L-2-amino-3-methoxypropionic acid, COC[C@H](N[*:1])C(=O)[*:2]; Amb = L-2-amino-4-methoxybutyric acid, COCC[C@H](N[*:1])C(=O)[*:2]; NHCH2(1,3-C6H4)CH2CO = O=C(Cc1cccc(CN[*:1])c1)[*:2]; tBuAla = CC(C)(C)C[C@H](N)C(=O)O; Nle = CCCC[C@H](N)C(=O)O; Abu = CC[C@H](N)C(=O)O; Dap = NC[C@H](N)C(=O)O; Aoc = NCCCCCCCC(=O)O; Ahp = NCCCCCCC(=O)O; βAla = NCCC(=O)O

Key:
[1] = biological target: T1, blood platelet receptor glycoprotein Ib-IX-V complex (GPIb) (human, UniProt P07359 17-652; P13224 26-206; P14770 17-177; P40197 17-560); experiment: inhibition of static adhesion of human platelets to coated vWF-A1; grade C = IC50 lower than 1 µM
T1 construct: whole, on cells; also called GPIb complex; GPIb receptor
Procedure: (§1) Platelet rich plasma was carefully transferred again to fresh containers, PGE1 (0.5 μg/ml, Sigma) was added and the suspension was allowed to rest for 5 min. This was followed by another centrifugation step for 15 min at 360 g. The supernatant was discarded and the cell pellets were carefully resuspended in tyrode buffer (NaCl, 137 mM (Sigma S-3014); KCl, 2.7 mM (Sigma P-9541); NaHCO₃,12 mM (Riedel deHaen 31437); NaH₂PO₄×2H₂O, 0.36 mM (Merck 6345); MgCl₂×6 H₂O, 1 mM (Sigma M-2670); Hepes, 10 mM (Sigma H-1016); glucose, 5.6 mM (Merck 8342); BSA, 0.1% (Sigma A7906)), and PGE1 (0.25 μg/ml) was added. After 5 min of resting the suspension was spun down for 15 min at 300 g. The supernatant was discarded and the pellets were carefully resuspended in TBS buffer (Tris-HCl, 50 mM (Fluka 93371); NaCl, 120 mM (Sigma S-3014); KCl, 2.7 mM (Sigma P-9541); CaCl₂, 0.05 mM (Sigma C-3306); MgCl₂×6 H₂O, 2 mM (Sigma M-2670); BSA, 0.1% (Sigma A7906); pH 7.4). The platelet count was adjusted to 2×10⁵ cells/μl, and the suspensions from individual donors were pooled at this stage. The platelets were allowed to rest for 30 min at room temperature before calcein AM (2.5 μM per 2×10⁵ cells/pi (Molecular Probes C-3099)) was added. This was followed by 15 min incubation in the dark. Cells were diluted to 5×10⁴ cells/μl and ReoPro (3 μg/ml (Centocor B. V., Leiden, N L)) was added, followed by a 10 min incubation period in the dark before adding the platelets to the assay plates.
96 well plates (Greiner hb, black, clear bottom, F, 655097) were coated with human recombinant vWF-A1 domain (1.5 μg/well, AA 475-706, expressed in E. coli) in Tris buffer (pH 7.4; Tris-HCl, 25 mM; NaCl, 150 mM) and incubated for 1 h at room temperature. After washing the wells 3× with TBS, blocking buffer (TBS with 5% BSA) was added followed by an incubation for 1 h. The wells were washed again 3× with TBS before 200 μl TBS were added to each well, preventing them from drying out. TBS was flicked out and serial dilutions of the test compound were added. The washed and calcein AM labeled thrombocytes were added to the wells (2.5×10⁶ cells/well). Following an adhesion period of 1.5 h in the dark the wells were washed 3× with TBS. Measurement of fluorescence per well was performed in a SpectraMax M5 reader (Molecular Devices). From the raw data % inhibition and IC₅₀ values were calculated.

[2] = biological target: T1, blood platelet receptor glycoprotein …; experiment: cell-based or functional assay
[3] = biological target: T1, blood platelet receptor glycoprotein …; experiment: inhibition of static adhesion of human platelets to coated vWF-A1; grade A = showed activity at 10 µM
Procedure: as §1, with “The platelet count was adjusted to 2×10⁵ cells/μl, and the suspensions from individual donors were pooled at this stage. The platelets were allowed to rest for 30 min at room temperature before calcein AM (2.5 μM per 2×10⁵ cells/pi (Molecular Probes C-3099)) was added. This was followed by 15 min incubation in the dark. Cells were diluted to 5×10⁴ cells/μl and ReoPro (3 μg/ml (Centocor B. V., Leiden, N L)) was added, followed by a 10 min incubation period in the dark before adding the platelets to the assay plates.” left out
96 well plates (Greiner hb, black, clear bottom, F, 655097) were coated with human recombinant vWF-A1 domain (1.5 μg/well, AA 475-706, expressed in E. coli) in Tris buffer (pH 7.4; Tris-HCl, 25 mM; NaCl, 150 mM) and incubated for 1 h at room temperature. […] Measurement of fluorescence per well was performed in a SpectraMax M5 reader (Molecular Devices). From the raw data % inhibition and IC₅₀ values were calculated.

T1 sequence (P07359 17-652, chain 1 of 4): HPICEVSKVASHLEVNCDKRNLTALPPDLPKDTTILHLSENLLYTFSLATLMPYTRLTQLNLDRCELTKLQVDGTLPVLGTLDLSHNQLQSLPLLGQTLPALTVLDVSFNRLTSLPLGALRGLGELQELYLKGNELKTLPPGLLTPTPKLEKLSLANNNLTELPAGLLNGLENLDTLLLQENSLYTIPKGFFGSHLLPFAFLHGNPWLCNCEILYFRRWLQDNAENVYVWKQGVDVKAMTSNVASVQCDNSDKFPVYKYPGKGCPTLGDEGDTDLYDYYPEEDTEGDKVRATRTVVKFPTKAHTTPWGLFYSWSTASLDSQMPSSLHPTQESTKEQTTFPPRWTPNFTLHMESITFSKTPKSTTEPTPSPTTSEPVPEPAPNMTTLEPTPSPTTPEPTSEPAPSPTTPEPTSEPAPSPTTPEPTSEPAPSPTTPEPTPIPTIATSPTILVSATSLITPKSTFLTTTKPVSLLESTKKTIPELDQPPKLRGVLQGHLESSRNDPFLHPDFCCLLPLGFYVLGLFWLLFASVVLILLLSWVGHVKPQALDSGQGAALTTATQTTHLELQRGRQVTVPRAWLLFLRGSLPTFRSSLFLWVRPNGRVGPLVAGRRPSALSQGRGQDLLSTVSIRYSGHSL
T1 sequence (P13224 26-206, chain 2 of 4): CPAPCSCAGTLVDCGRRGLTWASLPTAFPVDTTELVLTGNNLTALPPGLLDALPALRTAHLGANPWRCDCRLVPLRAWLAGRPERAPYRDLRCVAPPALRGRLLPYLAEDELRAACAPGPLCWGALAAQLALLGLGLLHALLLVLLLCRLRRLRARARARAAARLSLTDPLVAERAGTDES
T1 sequence (P14770 17-177, chain 3 of 4): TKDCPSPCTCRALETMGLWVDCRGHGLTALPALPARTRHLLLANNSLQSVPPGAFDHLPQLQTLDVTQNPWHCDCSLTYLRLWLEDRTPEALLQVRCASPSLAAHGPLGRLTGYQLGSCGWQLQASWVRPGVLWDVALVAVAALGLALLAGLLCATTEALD
T1 sequence (P40197 17-560, chain 4 of 4): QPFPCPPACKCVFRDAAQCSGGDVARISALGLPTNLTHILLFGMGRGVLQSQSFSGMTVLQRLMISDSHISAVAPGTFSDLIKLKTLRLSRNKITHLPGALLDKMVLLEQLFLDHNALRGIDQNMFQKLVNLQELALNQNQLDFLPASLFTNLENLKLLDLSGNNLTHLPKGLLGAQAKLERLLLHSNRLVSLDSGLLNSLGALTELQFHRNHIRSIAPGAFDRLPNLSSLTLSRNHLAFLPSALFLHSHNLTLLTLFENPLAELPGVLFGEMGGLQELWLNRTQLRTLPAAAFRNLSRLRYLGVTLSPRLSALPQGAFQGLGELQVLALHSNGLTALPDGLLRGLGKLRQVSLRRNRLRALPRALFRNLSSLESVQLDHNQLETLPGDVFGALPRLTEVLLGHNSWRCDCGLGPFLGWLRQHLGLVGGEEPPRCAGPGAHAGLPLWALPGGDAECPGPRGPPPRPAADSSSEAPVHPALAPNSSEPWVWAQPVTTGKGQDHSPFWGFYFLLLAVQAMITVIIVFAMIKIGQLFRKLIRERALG

B1: Cyclo[Leu-His-Asn-Leu-NH-(CH2)6-CO-Thr-Glu-Arg-Abu-Ala] (peptide)
peptide: cyclo(LHNL[Ahp]TER[Abu]A)
SMILES: CC[C@@H]1NC(=O)[C@H](CCCNC(=N)N)NC(=O)[C@H](CCC(=O)O)NC(=O)[C@H]([C@@H](C)O)NC(=O)CCCCCCNC(=O)[C@H](CC(C)C)NC(=O)[C@H](CC(N)=O)NC(=O)[C@H](Cc2c[nH]cn2)NC(=O)[C@H](CC(C)C)NC(=O)[C@H](C)NC1=O
IC50 [1]: < 1000 nM

B2: Cyclo[Leu-His-Asn-Leu-NH-(CH2)6-CO-Thr-Glu-Arg-Amb-Ala] (peptide)
peptide: cyclo(LHNL[Ahp]TER[Amb]A)
SMILES: COCC[C@@H]1NC(=O)[C@H](CCCNC(=N)N)NC(=O)[C@H](CCC(=O)O)NC(=O)[C@H]([C@@H](C)O)NC(=O)CCCCCCNC(=O)[C@H](CC(C)C)NC(=O)[C@H](CC(N)=O)NC(=O)[C@H](Cc2c[nH]cn2)NC(=O)[C@H](CC(C)C)NC(=O)[C@H](C)NC1=O
IC50 [1]: < 1000 nM

B3: Cyclo[Leu-His-Asn-Leu-NH-(CH2)6-CO-Thr-Glu-Arg-Nle-Ala] (peptide)
peptide: cyclo(LHNL[Ahp]TER[Nle]A)
SMILES: CCCC[C@@H]1NC(=O)[C@H](CCCNC(=N)N)NC(=O)[C@H](CCC(=O)O)NC(=O)[C@H]([C@@H](C)O)NC(=O)CCCCCCNC(=O)[C@H](CC(C)C)NC(=O)[C@H](CC(N)=O)NC(=O)[C@H](Cc2c[nH]cn2)NC(=O)[C@H](CC(C)C)NC(=O)[C@H](C)NC1=O
IC50 [1]: < 1000 nM

B4: Cyclo[Leu-His-Asn-Leu-NH-(CH2)6-CO-Thr-Glu-Arg-Met-Ala] (peptide)
peptide: cyclo(LHNL[Ahp]TERMA)
modifications: also: made as TFA salt and as acetate salt
notes: Made as trifluoroacetic acid salt and also as acetic acid salt
IC50 (average value), ristocetin-induced agglutination of human whole blood, impedance aggregometry [2]: < 1000 nM | IC50 [1]: < 1000 nM

B5: Cyclo[Leu-His-Asn-Leu-NH-(CH2)6-CO-Val-Glu-Arg-Met-Ala] (peptide)
peptide: cyclo(LHNL[Ahp]VERMA)
SMILES: CSCC[C@@H]1NC(=O)[C@H](CCCNC(=N)N)NC(=O)[C@H](CCC(=O)O)NC(=O)[C@H](C(C)C)NC(=O)CCCCCCNC(=O)[C@H](CC(C)C)NC(=O)[C@H](CC(N)=O)NC(=O)[C@H](Cc2c[nH]cn2)NC(=O)[C@H](CC(C)C)NC(=O)[C@H](C)NC1=O
binding result [3]: binds

B6: Cyclo[Leu-His-Asn-Leu-NH-X4-X3-X2-X1-CO-Thr-Glu-Arg-Met-Ala] of example 2 (peptide)
peptide: cyclo(LHNL[NHCH2(1,3-C6H4)CH2CO]TERMA)
SMILES: CSCC[C@@H]1NC(=O)[C@H](CCCNC(=N)N)NC(=O)[C@H](CCC(=O)O)NC(=O)[C@H]([C@@H](C)O)NC(=O)Cc2cccc(c2)CNC(=O)[C@H](CC(C)C)NC(=O)[C@H](CC(N)=O)NC(=O)[C@H](Cc2c[nH]cn2)NC(=O)[C@H](CC(C)C)NC(=O)[C@H](C)NC1=O
IC50 (average value), ristocetin-induced agglutination of human whole blood, impedance aggregometry [2]: < 1000 nM | IC50 [1]: < 1000 nM

B7: Cyclo[Leu-His-Asn-Leu-NH-(CH2)6-CO-Thr-Glu-Arg-Met-Dpr] (peptide)
peptide: cyclo(LHNL[Ahp]TERM[Dap])
SMILES: CSCC[C@@H]1NC(=O)[C@H](CCCNC(=N)N)NC(=O)[C@H](CCC(=O)O)NC(=O)[C@H]([C@@H](C)O)NC(=O)CCCCCCNC(=O)[C@H](CC(C)C)NC(=O)[C@H](CC(N)=O)NC(=O)[C@H](Cc2c[nH]cn2)NC(=O)[C@H](CC(C)C)NC(=O)[C@H](CN)NC1=O
IC50 [1]: < 1000 nM

B8: Cyclo[Leu-His-Asn-Leu-NH-(CH2)6-CO-Thr-Glu-Arg-Amp-Ala] (peptide)
peptide: cyclo(LHNL[Ahp]TER[Amp]A)
SMILES: COC[C@@H]1NC(=O)[C@H](CCCNC(=N)N)NC(=O)[C@H](CCC(=O)O)NC(=O)[C@H]([C@@H](C)O)NC(=O)CCCCCCNC(=O)[C@H](CC(C)C)NC(=O)[C@H](CC(N)=O)NC(=O)[C@H](Cc2c[nH]cn2)NC(=O)[C@H](CC(C)C)NC(=O)[C@H](C)NC1=O
IC50 [1]: < 1000 nM

B9: Cyclo[Npg-His-Asn-Leu-NH-(CH2)6-CO-Thr-Glu-Arg-Met-Ala] (peptide)
peptide: cyclo([tBuAla]HNL[Ahp]TERMA)
IC50 [1]: < 1000 nM

B10: Cyclo[Leu-His-Asn-Leu-NH-(CH2)2-CO-Gly-Thr-Glu-Arg-Met-Ala] (peptide)
peptide: cyclo(LHNL[βAla]GTERMA)
SMILES: CSCC[C@@H]1NC(=O)[C@H](CCCNC(=N)N)NC(=O)[C@H](CCC(=O)O)NC(=O)[C@H]([C@@H](C)O)NC(=O)CNC(=O)CCNC(=O)[C@H](CC(C)C)NC(=O)[C@H](CC(N)=O)NC(=O)[C@H](Cc2c[nH]cn2)NC(=O)[C@H](CC(C)C)NC(=O)[C@H](C)NC1=O
binding result [3]: binds

B11: Cyclo[Leu-His-Asn-Leu-NH-(CH2)7-CO-Thr-Glu-Arg-Met-Ala] (peptide)
peptide: cyclo(LHNL[Aoc]TERMA)
SMILES: CSCC[C@@H]1NC(=O)[C@H](CCCNC(=N)N)NC(=O)[C@H](CCC(=O)O)NC(=O)[C@H]([C@@H](C)O)NC(=O)CCCCCCCNC(=O)[C@H](CC(C)C)NC(=O)[C@H](CC(N)=O)NC(=O)[C@H](Cc2c[nH]cn2)NC(=O)[C@H](CC(C)C)NC(=O)[C@H](C)NC1=O
IC50 [1]: < 1000 nM
